# Test results taken from patent US20220112288A1 (published 2022).
# Changes are numbered by the printed parent chain.
# B1: 75110_10K21A (antibody, V domains shown)
# VH: EVQLVESGGGLVQPGGSLRLSCAASGFTFSSYWMTWVRQAPGKGLEWVANIKQDGSEKYYVDSVKGRFTISRDNAKNSLYLQMNSLRAEDTAVYYCVRDRYDALDIWGQGTMVTVSS
# VL: AIQMTQSPSSLSASVGDRVTITCRASQGIRNDLNWYQQKPGKAPKLLIYAASSLQSGVPSRFSGSGSGTDFTLTISSLQAEDFATYYCLKDYNYPYTFGQGTKLEIK
# notes: Tested as non-clonal hybridoma supernatant from AlivaMab Mouse Kappa mice, detected with anti-mouse Fc and anti-human Kappa
# B2: 75110_08H11A (antibody, V domains shown)
# VH: EVQLVESGGGLVQPGGSLRLSCAASGFTFSSYDMHWVRQATGKGLEWVSTIGTAGDTYYPGSVKGRFTISRENAKNSLYLQMNSLRAGDTAVYYCARGGYSYYGMDVWGQGTTVTVSS
# VL: EIVLTQSPGTLSLSPGERATLSCGASQSVSSTYLAWYQQKPGQAPRLLIYGASSRATGIPDRFSGSGSGTDFTLTISRLEPEDFAVYYCQQFGSSPFTFGPGTKVDIK
# notes: as for B1
# B3: 75110_10N21A (antibody, V domains shown)
# VH: B2 VH with A40V, S101Y
# VL: B2 VL with G24R, V29F, S30I, T32S, E80D, F92S, S94N, I107V
# notes: as for B1
# B4: 75110_13C07A (antibody, V domains shown)
# VH: B2 VH with G10V, S31N, I69L, N83H, G99A, S101G
# VL: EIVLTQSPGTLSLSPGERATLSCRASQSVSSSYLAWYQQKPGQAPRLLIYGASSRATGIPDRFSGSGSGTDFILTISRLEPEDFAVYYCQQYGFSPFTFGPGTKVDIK
# notes: as for B1
# B5: 75110_08H06A (antibody, V domains shown)
# VH: B2 VH with S31N, S101D
# VL: B2 VL with G24R, V29I, S30T, T32I, Q38R, F92Y
# notes: as for B1
# B6: 75110_14H13A (antibody, V domains shown)
# VH: B2 VH with S31N, E72K, N83I, Y100D, S101Y
# VL: not shown
# notes: as for B1
# B7: 75110_01H18A (antibody, V domains shown)
# VH: QVQLQQWGAGLLKPSETLSLTCAVYGGSFSGYYWSWIRQSPGKGLEWIGEINQSGSTNYNPSLKSRVTISVDTSKNQFSLKLSSVTAADTAVYYCARVINWFDSWGQGTLVTVSS
# VL: DIQMTQSPSSVSASVGDRVTITCRASQGISSWLAWYQQKPGKAPKLLIYAASSFQSGVPSRFSGSGSGTDFTLTISSLQTEDFATYYCQQANSFPYTFGQGTRLEIK
# notes: as for B1
# B8: 75110_07J24A (antibody, V domains shown)
# VH: QAQLQESGPGLVKPSETLSLTCTVSGGSISSYYYNWIRQPAGKGLEWIGRIYTSGRTDYNPSLKSRVTMSADTSKNQFSLKLSSVTAADTAVYYCARDEGPTDAFDIWGQGTMVTVSS
# VL: DIVMTQTPLSLPVTPGEPASISCRSSQSLLDSDDGNTYLDWYLQKPGQSPHLLIYTLSYRASGVPDRFSGSGSGSDFTLKISRVEAEDVGVYYCMQRIEFPFTFGPGTKVDIK
# notes: Tested as antibody purified from AlivaMab Mouse hybridoma supernatant (human variable domains, kappa; mouse Fc, captured on anti-mouse IgG Fc sensors); also called ADS75110 purified AMM Ab
# B9: 75110_08H11A (antibody, V domains shown)
# VH: B2 VH
# VL: B2 VL
# notes: as for B8
# B10: 75110_14H13A (antibody, V domains shown)
# VH: B2 VH with S31N, E72K, N83I, Y100D, S101Y
# VL: not shown
# notes: as for B8
# B11: 75110_08H06A (antibody, V domains shown)
# VH: B2 VH with S31N, S101D
# VL: B2 VL with G24R, V29I, S30T, T32I, Q38R, F92Y
# notes: as for B8
# B12: 75110_14G10A (antibody, V domains shown)
# VH: EVQLVESGGGLVKPGGSLRLSCAASGFTFSSYSMNWVRQAPGKGLEWVSFISSSSSYIYYADSVKGRFTISRDNAKNSLYLQMNSLRAEDTAVYYCARERGDDYGDYEGAFDIWGQGTMVTVSS
# VL: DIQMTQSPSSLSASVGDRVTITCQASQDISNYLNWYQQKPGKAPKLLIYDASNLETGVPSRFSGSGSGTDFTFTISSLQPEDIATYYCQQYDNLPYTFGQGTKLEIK
# notes: as for B8
# B13: 75110_14P08A (antibody, V domains shown)
# VH: QVQLQESGPGLVKSSETLSLTCTDSGDSIRSYYWNWIRQPAGKGLEWIGRIYASGSTNYNPSLKSRVIMSADTSKNRFSLKLSSVTAADTAVYYCARDGGVGDSLDYWGQGTLVTVSS
# VL: B8 VL with H51Q, S75T
# notes: Tested as AlivaMab Mouse (AMM) antibody purified from hybridoma supernatant and captured through its mouse IgG Fc; also called ADS75110 purified AMM Ab 75110_14P08A; Sib8.2
# B14: 75110_14P05A (antibody, V domains shown)
# VH: B2 VH with M34V, Y100F, S101Y
# VL: B2 VL with G24R, T32S, A44T, Y87F, F92S, I107V
# notes: Tested as AlivaMab Mouse (AMM) antibody purified from hybridoma supernatant and captured through its mouse IgG Fc; also called ADS75110 purified AMM Ab 75110_14P05A; Sib1.10
# Biological target: T1, human CD4 on cells (SKW3 cells; human PBMCs) (human, UniProt P01730 26-458)
# T1 construct: whole, on cells; The SKW3 CD4 knockout cells served as the negative cell line; also called hCD4
# Assay: FACS confirmation, supernatant on human PBMCs, anti-mFc 647
row,Binder,PBMCs CD4+ percent bound of viable [%]
1,B1,32
2,B2,31
3,B3,33
4,B4,35
5,B5,30
6,B6,29
7,B7,32

# Biological target: T1, human CD4 on cells (SKW3 cells; human …)
# Assay: FACS confirmation, supernatant on human PBMCs, anti-mFc 647, CD4+ gate
row,Binder,PBMCs CD4+ gate RL1 Binding
1,B1,224000
2,B2,246000
3,B3,179000
4,B4,303000
5,B5,225000
6,B6,292000
7,B7,263000

# Biological target: T2, Rhesus macaque CD4-HIS (Acro Biosystems, Cat. CD4-C52H7) (rhesus macaque, UniProt P16003 26-390)
# T2 construct: Bought reagent; also called Rhesus CD4; rhesus CD4-HIS; not shown: His tag
# Assay: BLI (Octet Red384); Ab on anti-mouse Fc (AMC) sensor; rhesus CD4-HIS as analyte
# T2 sequence (P16003 26-390 limits assumed): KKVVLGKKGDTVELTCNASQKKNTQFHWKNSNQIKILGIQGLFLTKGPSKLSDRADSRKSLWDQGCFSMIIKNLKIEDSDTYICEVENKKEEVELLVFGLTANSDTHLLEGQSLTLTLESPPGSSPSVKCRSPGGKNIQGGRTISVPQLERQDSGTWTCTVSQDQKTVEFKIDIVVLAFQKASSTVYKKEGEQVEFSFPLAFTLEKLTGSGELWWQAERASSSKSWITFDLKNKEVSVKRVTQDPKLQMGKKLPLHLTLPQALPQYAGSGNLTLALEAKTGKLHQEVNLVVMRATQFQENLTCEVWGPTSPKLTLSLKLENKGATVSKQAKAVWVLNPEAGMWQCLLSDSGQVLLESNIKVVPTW
row,Binder,binding result
1,B8,"no binding (tested: 100 nM (highest of 100, 50, 25 nM))"
2,B9,"no binding (tested: 100 nM (highest of 100, 50, 25 nM))"
3,B10,"no binding (tested: 100 nM (highest of 100, 50, 25 nM))"
4,B11,"no binding (tested: 100 nM (highest of 100, 50, 25 nM))"
5,B12,"no binding (tested: 100 nM (highest of 100, 50, 25 nM))"

# Biological target: T1, human CD4 on cells (SKW3 cells; human …)
# Assay: FACS confirmation, supernatant on SKW3 WT cells, anti-mFc 647; background gMFI 3300
row,Binder,"gMFI, SKW3 WT anti-mFc 647 [gMFI]"
1,B1,19200
2,B2,18600
3,B3,13000
4,B4,23100
5,B5,23000
6,B6,22000
7,B7,19000

# Biological target: T1, human CD4 on cells (SKW3 cells; human …)
# Assay: FACS confirmation, supernatant on SKW3 WT cells, anti-hu Kappa FITC; background gMFI 2500
row,Binder,"gMFI, SKW3 WT anti-hu Kappa FITC [gMFI]"
1,B1,5850
2,B2,5230
3,B3,4060
4,B4,5720
5,B5,6270
6,B6,6010
7,B7,4930

# Biological target: T1, human CD4 on cells (SKW3 cells; human …)
# Assay: FACS primary screen, non-clonal supernatant; SKW3 vs SKW3 CD4 KO cells, anti-mouse Fc 647 detection
row,Binder,"SKW3 WT vs KO, anti-mFc-647 (ratio)"
1,B1,2.6
2,B2,2.8
3,B3,3.1
4,B4,3.1
5,B5,3
6,B6,4.8
7,B7,3.6

# Biological target: T1, human CD4 on cells (SKW3 cells; human …)
# Assay: FACS binning on SKW3 cells after supernatant; competitor OKT4-A488; background 2163, max binding 8200
row,Binder,OKT4 A488 signal (FACS binning)
1,B1,9980
2,B2,9770
3,B3,9090
4,B4,9590
5,B5,10400
6,B6,12700
7,B7,9840

# Biological target: T1, human CD4 on cells (SKW3 cells; human …)
# Assay: FACS primary screen, non-clonal supernatant; SKW3 vs SKW3 CD4 KO cells, anti-human Kappa FITC detection
row,Binder,"SKW3 WT vs KO, anti-hKappa-FITC (ratio)"
1,B1,1.7
2,B2,1.6
3,B3,1.4
4,B4,1.6
5,B5,1.6
6,B6,1.9
7,B7,1.6

# Biological target: T1, human CD4 on cells (SKW3 cells; human …)
# Assay: FACS binning on SKW3 cells after supernatant; competitor RPA-T4-PE-Dazzle 594; background 783, max binding 15000
row,Binder,RPA-T4-PE-Dazzle 594 signal (FACS binning)
1,B1,2590
2,B2,3090
3,B3,6880
4,B4,2510
5,B5,2480
6,B6,1660
7,B7,2830

# Biological target: T3, huCD4-HIS (human, UniProt P01730 26-390, limits assumed)
# T3 construct: Named only in the head of the Ibalizumab ELISA binning column; Neither the source nor the construct limits are told in this stretch; not shown: HIS tag
# Assay: ELISA binning, competitor Ibalizumab; 100 ng/mL huCD4-HIS, anti-HIS HRP detection; background 45, max binding 3000000
row,Binder,Ibalizumab ELISA binning signal
1,B1,293000
2,B2,869000
3,B3,1.58e+06
4,B4,1.7e+06
5,B5,1.42e+06
6,B6,2260
7,B7,385000

# Biological target: T1, human CD4 on cells (SKW3 cells; human …)
# Assay: FACS binning on SKW3 cells after supernatant; competitor OKT4a, anti-hu A647 secondary; background 5000, max binding 35000
row,Binder,OKT4a anti-hu A647 signal (FACS binning)
1,B1,34100
2,B2,36000
3,B3,40100
4,B4,38900
5,B5,29900
6,B6,14300
7,B7,37200

# Biological target: T4, Recombinant human CD4 (R&D Systems, Cat. 10327-CD) (human, UniProt P01730 26-390, limits assumed)
# T4 construct: Bought recombinant protein; also called huCD4
# Assay: BLI (Octet Red384); purified antibody captured on anti-mouse IgG Fc (AMC) sensors; human CD4 as analyte at 100, 50 and 25 nM; 1:1 global fit
Binder,Kd [pM],koff [s⁻¹],kon [M⁻¹ s⁻¹]
B13,330,3.2e-05,96000
B14,< 1,< 1e-07,95000
